Test: yeast display, Sf9 membrane polyspecificity reagent, FACS + sequencing; frameworks hold sequencing errors
Method in brief: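 Synthetic nanobody libraries on Saccharomyces cerevisiae BJ5465 were galactose-induced for 36–48 hours, stained 1 hour at 4 °C with 10% biotinylated, detergent-solubilized Sf9 membrane reagent and enriched on streptavidin microbeads. FACS then separated cells into low and high (top ~1%) gates by anti-HA (expression) and streptavidin (reagent binding) fluorescence. Genes were colony-PCR amplified, MiSeq 2 × 250 sequenced and CDR-length filtered. A clone's polyreactivity label is that of its gate of origin.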

Row | Sequence | polyreactivity (PSR sort gate)
1 | QVQLVETWGGLVQAGGSLRLSCPASGSIFPRKAMGWYRQAPGKERELVAGISSGGSTNYADSVKGRFTISRDNAKNTVYLQMNSLKPEDTAVYYCAARQWIRNLGFGYSIYNYWGQGTQVTVSS | high polyreactivity
2 | QVQLVGSGGGLVQAGGSLRLSCAASGRTFRAYAMGWYRQAPGKERELVAAIRSSGGSTYADSVKGRFTISRDNAKNTVYLQMNSLKPEDTAVYYFAKPIAPARNAYPAYDYWGQGTQVTVSS | high polyreactivity
3 | QVQLVGSGGGLVQAGGSLRLSCAASGSTIKYYAMGWYRQAPGKERELVARITSDGGSTFYADSVKGRFTISRDNAKNTAYVQMNSLKPEDPAVYYCNTAYAFRHWWFYPMDYWGQGTQVTVSA | high polyreactivity
4 | QVQLVHSGGRLVQAGGRLRLSCAASGSTFSSYARGRYIQGPRKERELVAAISWNGGSTYYADSVKGRFTISRDNAKNTVYLQMNSLKPQDTAVYYCAAIYFRNTYSYGMDYWGQGTQVTVSS | high polyreactivity
5 | QVQLVKSGGGLVQAGGSLRLSCAASVRTILYNAIGWYRQAPGKESELVAAITGGGSTYYADSVKGRFTISRDNAKNTVYLQMNSLKPEDTAVYYCAADLSVVRYDYWGQGTQVTVSS | low polyreactivity
6 | QVQLVLSGGGLVQAGGSLRLSCAASGNTIIRYAMGWYRQEPGKESELVAAISYSGGRTYYADSVKGRFTISRDNAKNTVYLQMNSLKPEDTAVYYCAARYYRSGYRKKIYYWGQGTQVTVSS | high polyreactivity
7 | QVQLVQSFGGLVQAGGSLRLSCAASGRIFWPYAMGWYRQPPGKERELVAAITGSGSRTYYADSVKGRFTISRDYAKNTVYLHMNSLNREDTAVYYCAATSSTDYDYWGQGTQVTVSS | low polyreactivity
8 | QVQLVQSGAGLVQAGGSLRLSCAPSGRTFWRYPMGLYRQAPGKERELVASISARGGSTYYADSVKGRFTISRDNAKNTVYLQMNSLKPEDTAVYYCKRQSWFTVGGFTYRYDYWGQGTQVTVSS | high polyreactivity
9 | QVQLVQSGGGLVQAGGSLRLICAASGSNFYGNAMGWYRQAPGKERELVAAISRGGGYTYYADSVKGRFTISRDNAKNTVYLEMNSLKPEDTAVYYCDATRYLHPWYYPYYYWGQVTQVTVSS | low polyreactivity
10 | QVQLVQSGGGLVQAGGSLRLRCAASGRIFTPYAMGWNRQAPGQDRELVAAISASGTRTYYADSVKGRFTISRDNAKNTVYLQMKSLQAEDSAVYSCAAYKSGEPSDYWGQGTQVTVSS | high polyreactivity
11 | QVQLVQSGGGLVQAGGSLRLSCAASGFTFRFYAMGWYRQATGKERELVASINWSGGRTYYADSVKGRFTISRDNAKNTVYLEMNSLKPVDTAVYYCATQYLIQTKYYSWGQGTQVTVSS | high polyreactivity
12 | QVQLVQSGGGLVQAGGSLRLSCAASGNIFKGYAMRWYRQAPVKERELVAAISKSGGSTYYADSVKGRFTMSRDNAKNTVYLQLNSLKPADTAVYYSNTYTYAGYNYWGQGTQVTVSS | high polyreactivity
13 | QVQLVQSGGGLVQAGGSLRLSCAASGRIFKYNAMGWYRQAPGKERDLVAVITSGGSTYYADSVKGRFTISRDNAKNTFYLQMNSQKPEDTAVYSCAKKYYKVHKFDYWGQGTQVTVSS | low polyreactivity
14 | QVQLVQSGGGLVQAGGSLRLSCAASGRIFNNYAMGWYRQAPRKERELLAAISGSGGSTYYADSVKGRFTISRDNAKNTVYLQMNCMKPEDTAVYYCSTSGPQYYSRNFDYWGQGTQVTVSS | low polyreactivity
15 | QVQLVQSGGGLVQAGGSLRLSCAASGRISIIYAMVWYRQAPGKERELVARISGSGGSTNYADSVKGRFTISRDNAKNTVYLQMNSLKPEDTAVYYCAARHYAVRRSRYPGKLGYYWVQGTQVTVSS | high polyreactivity
16 | QVQLVQSGGGLVQAGGSLRLSCAASGSTFSTYAMGWYRQAPGKERELVAAISRYGGLTNYADSVKGRFTISRDNAKNTVYLQMNSLKPEDTAVYYCAARRYDTGNGYDYWGQGTQVTVSS | high polyreactivity
17 | QVQLVQSGGGLVQAGGSLRLSCADSGFIFFTNAMGRYRQAPGQDREFVAAISDSSGSTYYADSVKGRFTISRDNAKNTVYLQMNSLKPEDTAVYYCAAEYPQVTIIGYYYYWGQGTQVTVSS | low polyreactivity
18 | QVQLVQSGGGLVQAGGSLSLSCAASGYIFISYAMGWNRQAPGQEREFVAAITGDGGSTYADSVKGRFTISRDNAKKTVYGQMNSLKPEDTAVYYCAKKGNASRYFIYDYWGQGTQVTVSS | low polyreactivity
19 | QVQLVQSGGGLVQAGVSLRLSCAPSGFTFYKYAMGWYRQAPGKERELVAAISGSGTSTYYADSVKGRFTISRHNAKNTVYLQMNSLKPEDTAVYYCATRIVFTRRRMYSWGQGTQVNVSS | high polyreactivity
20 | QVQLVQSGGGLVQEGGSLRLSCAASGSTLSIYAMGWYRQAPGKERELVASITTSGSSTYYADSVKGRFTISRDNAKNTVYLQMNSLKPEDTAVYYCAKRKSYRSQPWGYDYWGQGTQVTVSS | high polyreactivity
21 | QVQLVQSWGGLVQAGGSLRLICAASGSIIAYNAMGWYRQAPGKEREMVAAITISGGSTYYADSVKGRFTISRDNAKNNVYLQMNSLKPEDTAVYYSAAAIPGARSRRSYGKYFYWGQGTQVTVSS | low polyreactivity
22 | QVQLVVSGGGLVHAGGSLRLSCAASGNTIFYYDLGGYIQAPGKERELVADITSRGTRTYYADSVKGRFTISRDKAKNTVYLQMNSLKPEDTAVYYCNKARGVAYDWGQGTQVTVSS | high polyreactivity

Row | Sequence | polyreactivity (PSR sort gate)
23 | QVQLVVSGGGLVQAGGILRLICAASGIIFSFYTMGGYRQAPGKERELVAAISTGGGSTYYADSVKGRFTISRDNAKNTVYLQMNSLIPEDTAVSYCAASQSWYWGGAHDNGEFGYCGQGTQVTVSS | low polyreactivity
24 | QVQLVVSGGGLVQAGGSLRLSCAASGFIFGYYAMGWYRQAPGNERALDAAITGRGGSTNYADSVKGRFTISRDNAKNTVYLQMNSLKPEDTAVYYCAKRWRSYSRGGDYWGQGTQVTVSS | high polyreactivity
25 | QVQLVVSGGGLVQAGGSLRLSCAASGFTFIVNAMGWYRQAPGKERELVAAISWNGGSTYYADSVKGRFTISRDNAKNTVYLQMNSLKPEATAVYYCAAVRYNSRGSTTPSEMYYWGQGTQVTVSS | low polyreactivity
26 | QVQLVVSGGGLVQAGGSLRLSCAASGRFFGYYARGWYRQAPGEERELVAAITRGGSTNYADSVKGRFTISRDNAKNTVYLQMNSLKPEDTAVYYCNARRYRPGTASYDYWGQGTQVTVSS | high polyreactivity
27 | QVQLVVSGGGLVQAGGSLRLSCAASGRIFRSYAKGWYRQAPGKERELVAAINYGGTSTYYADSVKGRFTISRDNAKNTVYLQMNSLKPEDTAVYYCAARRPTSPRRYESWGQGTQVTVSS | high polyreactivity
28 | QVQLVVSGGGLVQAGGSLRLSCAASGSTFSLNAMGWYRQAPGKERELVAVITRGTSTYYADSVKGRFTISRDNAKNTVYLQMNRLTPEDNAVYYCAAAVWWSVVWAARYGYWGQGTQVTVSS | low polyreactivity
29 | QVQLVVSGGGLVQAGGSLRLSCAASGYIFVYNAMGWYRQAPGKERELVSAITDGGGSTYADSVKGRFTISRDNAKNTVYLQMNSLKPEDTAVYYCAALYSDTTWYVLYYYWGQGTQVTVSS | low polyreactivity
30 | QVQLVVSGGGLVQAGGSLRLSGAASGSIFWVYAMGWSRQAPGKELELVAAINWRGGSTYYADSVKGRFTISRDNAKNTVYLQKNSLKPEDTAVYNCAVQPNYYGMGYWGQGTQVTVSS | high polyreactivity
31 | QVQLVYSGGGLVQAGGSLRLSCAASGRTFSWYAMGWYRTAPGKESELVAAITWSGGSTYYADSVKGRFTISRDNAKNTVYLEMNSLKPEDTAVYFCNALRYSNRRYYSTGPHDYWGQGTHVTVSS | high polyreactivity
32 | QVQLVYSGGGLVQAGGSLSLSCAASGSTIDGYAMGWYRQAPGKERELVAAISSSGASTYYADSVKGRFTISRDNAKNTVYLQMNSLKPEDTAVYYCNRVTCQQKNDYWGQGTQVTVSS | high polyreactivity
33 | QVQLVYSGGGLVQSGGSLRLSCAASGYIVQPYAMGWYRQAQGKERELVAPISWRGGSTYSADSVKGRFTISRDNAKNTVYLQMYSLKPEDTAVYYFAKDYYYGLEHYGYWGQGTQVTVSS | low polyreactivity
34 | QVQNEESGGGLVQAGGSLRLSCAASGRNFSSYAMGWYRQAPGKERELVAAISRAGGTYYADSVKGRFTISRDNAKNTVYLQMNSMKPEDTAVYYCAARQSVYGLRSDFYYWGQGTQVTVSS | high polyreactivity
35 | QVQNVESGRGLVQAGGSLRISCAASGDYAMGWSIQAPGTERELVAAISRRGGSTYYADSVKGRFTISRDNAKNTVYLQMNSLKQDDTAVYSCAADYSSRNRGNRYRLDYWGQGTQVTVSS | high polyreactivity
36 | QVQPVESAGGLVQAGGSLRLSCAASGSTFARYAMGWFSQAPGKERELVAVITWTGGSTYADSVKGRFTISRDNAKNTVYLQMNSLNPEDTAVYYCNAVHATRRRLGYWGQGTQVTVSS | low polyreactivity
37 | QVQPVESGGGLVQAGGSLRLSCAASGRTFWYYTMGWYRQAPGKERELVAAITSVGSTYYADSVKGRFTISRDNAKNTVYLQMNSLKPEDTAVYYCAKLYSYTHQSFDHWGQGTQVTVSS | high polyreactivity
38 | QVQPVESGGGLVQAGGSLRLSCAASGSTFTVNAMRWYRQPPGNERELVAAITFSGTSTYYADSVKGRFTISRDNAKNTVYLQMNSLKPEDTAVYYCNAVVWGYSKSLGDTRTKYEYWGQVTQVTVSS | high polyreactivity
39 | QVQQLESAGGLVQAGGSLRLSCAASGTITVLYKMGWFRQAPGKEREFVASINYGTSTYYADSVKGRFSVSPDSAKHTVYLQMNSLNPEDTAVYYCAAAYRWQDVYRYWGLGTQVTVSS | low polyreactivity
40 | QVQQQESGGGLVQAGGSLRLSCAASGNTSDTGYMGWYRQAPGKERKVVASIDYGSNTYYADSVKVRFTISRDNAKNTVYLQMNSLKPEDTAVYYCAAYYIGDYTLVYWGQGTQVTVSS | high polyreactivity
41 | QVQQQESGGGLVQAGGSLRLSCAASGTIFQLTVMGRYRQAPGKDRELVASIDYGGNTNYADSVKGRFTISRDNAKNTVYLQMNCRKPEDTAVYYCAASSDSWTTHPYWGQGTQVTVRS | low polyreactivity
42 | QVQQQESGGGLVQAGGSLRLSCAASGYIFQAENMGWYRQAPGKERELVAAITIGASTYYADSVRGRFTISRDNAKNTVYLQMNSVKPEDTAVYYCAAKRFQYRTLYDYWGQGTQVTVSS | high polyreactivity
43 | QVQQVESWGGLLQAGGSLRLSCAASGSIFTLYAMGWYREAPGKERELVADITWSGGSTYYADSVKGRFTISRDNAKNTVYLEMNSLKPEDTAVYYCAIDYLAGGPWEGHVEREYDYWGQGTQVTVSS | low polyreactivity

Source: the nanobody polyreactivity screen of Harvey et al. (2022)
